B1: NRC3_random_hg19_195_o1 (dsDNA)
DNA 1: GCGGACTGTCTGCAAAGAGTCCTGTGATATGATCTGGCGATTGACAGCGTAGAATGAAGG
DNA 2: CCTTCATTCTACGCTGTCAATCGCCAGATCATATCACAGGACTCTTTGCAGACAGTCCGC
B2: NRC3_random_hg19_385_o1 (dsDNA)
DNA 1: GCTCTATGGTCACTAGACCTTGGGATGCACCAAGGCGCGATTGACAGCGTAGAATGAAGG
DNA 2: CCTTCATTCTACGCTGTCAATCGCGCCTTGGTGCATCCCAAGGTCTAGTGACCATAGAGC
B3: NRC3_wobSeed97_DR4_A6T_o1 (dsDNA)
DNA 1: GCCAATCTAGGTCACGAAAGGTCAAAGTCGAATGACGCGATTGACAGCGTAGAATGAAGG
DNA 2: CCTTCATTCTACGCTGTCAATCGCGTCATTCGACTTTGACCTTTCGTGACCTAGATTGGC
B4: NRC3_wobSeed74_DR3_C13T_o1 (dsDNA)
DNA 1: GCTCTAGTTGGTTACGGAGGTCACACACGACGGGTAGCGATTGACAGCGTAGAATGAAGG
DNA 2: CCTTCATTCTACGCTGTCAATCGCTACCCGTCGTGTGTGACCTCCGTAACCAACTAGAGC
B5: NRC3_wobSeed41_DR1_T8G_o1 (dsDNA)
DNA 1: GCATATGGAGGTTAAGGGTCATTCAGGTTGGTTCGCGCGATTGACAGCGTAGAATGAAGG
DNA 2: CCTTCATTCTACGCTGTCAATCGCGCGAACCAACCTGAATGACCCTTAACCTCCATATGC
B6: NRC3_wobSeed138_DR5_T5C_o1 (dsDNA)
DNA 1: GCGACACAGGGTCAGCTAGAGGCCAGAGTATGGAAAGCGATTGACAGCGTAGAATGAAGG
DNA 2: CCTTCATTCTACGCTGTCAATCGCTTTCCATACTCTGGCCTCTAGCTGACCCTGTGTCGC
B7: NRC3_wobSeed138_DR5_A6C_o1 (dsDNA)
DNA 1: B6 DNA 1 with C5T, A6C
DNA 2: B6 DNA 2 with T55G, G56A
B8: NRC3_wobSeed29_DR1_C25T_o1 (dsDNA)
DNA 1: GCGCTTACGGGTCAAAGGTTATAGTATGAATAGAATGCGATTGACAGCGTAGAATGAAGG
DNA 2: CCTTCATTCTACGCTGTCAATCGCATTCTATTCATACTATAACCTTTGACCCGTAAGCGC
B9: NRC3_wobSeed46_DR1_C7A_o1 (dsDNA)
DNA 1: GCTTACAAAGGTGAAAGGTCGTTGATGCACGCCTTGGCGATTGACAGCGTAGAATGAAGG
DNA 2: CCTTCATTCTACGCTGTCAATCGCCAAGGCGTGCATCAACGACCTTTCACCTTTGTAAGC
B10: NRC3_wobSeed49_DR2_A5C_o1 (dsDNA)
DNA 1: GCCACACTAGGTCAAGAGGTCAAAGTCCGCTTCCCGGCGATTGACAGCGTAGAATGAAGG
DNA 2: CCTTCATTCTACGCTGTCAATCGCCGGGAAGCGGACTTTGACCTCTTGACCTAGTGTGGC
B11: NRC3_wobSeed37_DR1_G24A_o1 (dsDNA)
DNA 1: GCCGTCCAAGGTCAAAGGTCAGTAAAGAGATGACGGGCGATTGACAGCGTAGAATGAAGG
DNA 2: CCTTCATTCTACGCTGTCAATCGCCCGTCATCTCTTTACTGACCTTTGACCTTGGACGGC
B12: NRC3_wobSeed109_DR4_G25C_o1 (dsDNA)
DNA 1: GCCGTCCAAGGTCATAGGAGGTCACTGAAGACAGATGCGATTGACAGCGTAGAATGAAGG
DNA 2: CCTTCATTCTACGCTGTCAATCGCATCTGTCTTCAGTGACCTCCTATGACCTTGGACGGC
B13: NRC3_wobSeed109_DR4_G17A_o1 (dsDNA)
DNA 1: B12 DNA 1 with G17A, C25G
DNA 2: B12 DNA 2 with G36C, C44T
B14: NRC3_wobSeed99_DR4_G27A_o1 (dsDNA)
DNA 1: GCTCTCGGAGGACACGAAAGGTCAGAACTCGACATCGCGATTGACAGCGTAGAATGAAGG
DNA 2: CCTTCATTCTACGCTGTCAATCGCGATGTCGAGTTCTGACCTTTCGTGTCCTCCGAGAGC
B15: NRC3_wobSeed13_DR0_G17C_o1 (dsDNA)
DNA 1: GCCGTCCAAGGTCAAGCTCAGTGAAAGAGACTCGAAGCGATTGACAGCGTAGAATGAAGG
DNA 2: CCTTCATTCTACGCTGTCAATCGCTTCGAGTCTCTTTCACTGAGCTTGACCTTGGACGGC
B16: NRC3_wobSeed13_DR0_C19G_o1 (dsDNA)
DNA 1: B15 DNA 1 with C17G, C19G
DNA 2: B15 DNA 2 with G42C, G44C
B17: NRC3_wobSeed30_DR1_G7A_o1 (dsDNA)
DNA 1: GCACTAACAGGCCAAGGGTCACTCAAGATTAGTCCGGCGATTGACAGCGTAGAATGAAGG
DNA 2: CCTTCATTCTACGCTGTCAATCGCCGGACTAATCTTGAGTGACCCTTGGCCTGTTAGTGC
B18: NRC3_wobSeed25_DR1_C26T_o1 (dsDNA)
DNA 1: GCCAAACTAGGTCAAAGGTCAAAGTTGAGCCAACCAGCGATTGACAGCGTAGAATGAAGG
DNA 2: CCTTCATTCTACGCTGTCAATCGCTGGTTGGCTCAACTTTGACCTTTGACCTAGTTTGGC
B19: NRC3_wobSeed25_DR1_A5G_o1 (dsDNA)
DNA 1: B18 DNA 1 with A5G, T26C
DNA 2: B18 DNA 2 with A35G, T56C
B20: NRC3_wobSeed9_DR0_T17G_o1 (dsDNA)
DNA 1: GCATCTCTAGGTAAAGGTCAGTGAAAGATCGATAGAGCGATTGACAGCGTAGAATGAAGG
DNA 2: CCTTCATTCTACGCTGTCAATCGCTCTATCGATCTTTCACTGACCTTTACCTAGAGATGC
B21: NRC3_wobSeed5_DR0_G23T_o1 (dsDNA)
DNA 1: GCCCTTACGGGTCAAGGTTATATCACGGGTGGTACGGCGATTGACAGCGTAGAATGAAGG
DNA 2: CCTTCATTCTACGCTGTCAATCGCCGTACCACCCGTGATATAACCTTGACCCGTAAGGGC
B22: NRC3_wobSeed28_DR1_T8A_o1 (dsDNA)
DNA 1: GCCCTACAGGGCCAAAGGTCATTGATTCCAATGCTCGCGATTGACAGCGTAGAATGAAGG
DNA 2: CCTTCATTCTACGCTGTCAATCGCGAGCATTGGAATCAATGACCTTTGGCCCTGTAGGGC
B23: NRC3_wobSeed28_DR1_T22G_o1 (dsDNA)
DNA 1: B22 DNA 1 with A8T, T22G
DNA 2: B22 DNA 2 with A39C, T53A
B24: NRC3_wobSeed85_DR3_G17T_o1 (dsDNA)
DNA 1: GCCGTCCAAGGTCAGATAGGTCAGTGAATGCCGAGTGCGATTGACAGCGTAGAATGAAGG
DNA 2: CCTTCATTCTACGCTGTCAATCGCACTCGGCATTCACTGACCTATCTGACCTTGGACGGC
B25: NRC3_wobSeed98_DR4_G11T_o1 (dsDNA)
DNA 1: GCACTAGTTGTTCAGCTGAGGTCACACACAATTCGGGCGATTGACAGCGTAGAATGAAGG
DNA 2: CCTTCATTCTACGCTGTCAATCGCCCGAATTGTGTGTGACCTCAGCTGAACAACTAGTGC
B26: NRC3_wobSeed117_DR4_G26T_o1 (dsDNA)
DNA 1: GCCGTCAAAGTTCAACTAAGGTAACTTAAAGCACGCGCGATTGACAGCGTAGAATGAAGG
DNA 2: CCTTCATTCTACGCTGTCAATCGCGCGTGCTTTAAGTTACCTTAGTTGAACTTTGACGGC
B27: NRC3_wobSeed17_DR0_A24T_o1 (dsDNA)
DNA 1: GCATATGTAGGTTAGGGTCATTCTGAAAGTAGGGAAGCGATTGACAGCGTAGAATGAAGG
DNA 2: CCTTCATTCTACGCTGTCAATCGCTTCCCTACTTTCAGAATGACCCTAACCTACATATGC
B28: NRC3_wobSeed125_DR5_A7G_o1 (dsDNA)
DNA 1: GCCCTTGCGGGTCACTGACAGGTTATAGCATTTGGAGCGATTGACAGCGTAGAATGAAGG
DNA 2: CCTTCATTCTACGCTGTCAATCGCTCCAAATGCTATAACCTGTCAGTGACCCGCAAGGGC

Residue numbers refer to the chain shown, from its start.

Sequence of PXR:RXRa (O75469 whole entry, chain 1 of 2): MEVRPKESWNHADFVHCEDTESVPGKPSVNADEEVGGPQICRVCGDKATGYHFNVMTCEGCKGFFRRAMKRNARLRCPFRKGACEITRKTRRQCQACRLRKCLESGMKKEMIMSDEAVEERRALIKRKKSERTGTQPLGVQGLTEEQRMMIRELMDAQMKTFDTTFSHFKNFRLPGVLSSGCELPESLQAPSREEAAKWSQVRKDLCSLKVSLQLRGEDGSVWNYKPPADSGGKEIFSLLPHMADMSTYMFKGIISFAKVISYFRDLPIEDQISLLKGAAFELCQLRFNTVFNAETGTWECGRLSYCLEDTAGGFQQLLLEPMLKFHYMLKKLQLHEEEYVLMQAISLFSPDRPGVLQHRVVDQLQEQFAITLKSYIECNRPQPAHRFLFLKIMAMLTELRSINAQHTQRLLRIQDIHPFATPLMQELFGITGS
Sequence of PXR:RXRa (P19793 whole entry, chain 2 of 2): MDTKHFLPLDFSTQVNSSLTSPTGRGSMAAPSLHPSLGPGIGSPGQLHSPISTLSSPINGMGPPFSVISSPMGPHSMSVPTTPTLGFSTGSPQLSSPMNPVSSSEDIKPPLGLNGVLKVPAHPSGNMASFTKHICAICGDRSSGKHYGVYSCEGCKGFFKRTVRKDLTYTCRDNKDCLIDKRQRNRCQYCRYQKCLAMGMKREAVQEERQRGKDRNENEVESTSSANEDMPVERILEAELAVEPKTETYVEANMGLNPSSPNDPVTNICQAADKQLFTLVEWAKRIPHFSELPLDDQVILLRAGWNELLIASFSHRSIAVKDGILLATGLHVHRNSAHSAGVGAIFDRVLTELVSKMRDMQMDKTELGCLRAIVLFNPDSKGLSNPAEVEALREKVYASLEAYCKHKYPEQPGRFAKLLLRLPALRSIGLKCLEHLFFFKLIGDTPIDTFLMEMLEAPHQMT
Sequence of LXRa:RXRa (Q13133 whole entry, chain 1 of 2): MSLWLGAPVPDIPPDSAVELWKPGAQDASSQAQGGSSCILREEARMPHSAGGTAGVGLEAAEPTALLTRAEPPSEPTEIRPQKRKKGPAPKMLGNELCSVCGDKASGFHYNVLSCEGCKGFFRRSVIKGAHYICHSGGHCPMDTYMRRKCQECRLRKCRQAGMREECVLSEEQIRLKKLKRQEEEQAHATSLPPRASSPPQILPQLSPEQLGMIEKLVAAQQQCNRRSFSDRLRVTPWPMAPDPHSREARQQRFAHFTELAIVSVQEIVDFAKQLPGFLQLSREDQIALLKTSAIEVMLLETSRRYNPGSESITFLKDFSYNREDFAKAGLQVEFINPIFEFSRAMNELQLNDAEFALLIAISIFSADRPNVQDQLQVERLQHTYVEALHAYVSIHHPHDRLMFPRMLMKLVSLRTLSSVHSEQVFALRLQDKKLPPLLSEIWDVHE
Sequence of LXRa:RXRa (P19793 whole entry, chain 2 of 2): as the sequence (P19793 whole entry, chain 2 of 2) above

The first data set concerns the target LXRa:RXRa (Homo sapiens, UniProt Q13133;P19793 full;full). Nature of the data set: no ligand; PBM; 270 nM : 90 nM RXRa; PBS pH 7.4, 2% milk, 0.02% Triton X-100, 1 mM DTT, BSA, 0.4 mg/ml salmon testes DNA. The following applies: tags: His kept;His cleaved; copies: 1;1; label: surface-attached array probe. The procedure, abridged: (§1)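 For binding z-scores, the reference was random background probes on custom Agilent 4×180K protein-binding microarrays. These arrays were incubated 1 h with ligand-free nuclear receptor dimers in PBS pH 7.4, 2% milk, 0.02% Triton X-100, 1 mM DTT, 0.2 mg/mL BSA and 0.4 mg/ml salmon testes DNA. Fluorescence was scanned after antibody detection of each partner (one per run) and regression-normalized.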
Regarding B1, the binding signal was -1.32 PBM z-score against 500 random probes.

Take B2: the binding signal is 0.2 PBM z-score against 500 random probes.

Another data set deals with PXR:RXRa (Homo sapiens, UniProt O75469;P19793 full;full). Described as above. Particulars: tags: His kept;His cleaved; copies: 1;1; label: surface-attached array probe. The procedure, abridged:
as §1
As to B1, the binding signal is -0.96 PBM z-score against 500 random probes.

As to B2, the binding signal is 0.11 PBM z-score against 500 random probes.

The target in another data set is RARa:RXRa (Homo sapiens, UniProt P10276;P19793 full;full). The data set is described as above. The following applies: tags: His kept;His cleaved; copies: 1;1; label: surface-attached array probe. An outline of the steps: as §1
Sequence of RARa:RXRa (P10276 whole entry, chain 1 of 2): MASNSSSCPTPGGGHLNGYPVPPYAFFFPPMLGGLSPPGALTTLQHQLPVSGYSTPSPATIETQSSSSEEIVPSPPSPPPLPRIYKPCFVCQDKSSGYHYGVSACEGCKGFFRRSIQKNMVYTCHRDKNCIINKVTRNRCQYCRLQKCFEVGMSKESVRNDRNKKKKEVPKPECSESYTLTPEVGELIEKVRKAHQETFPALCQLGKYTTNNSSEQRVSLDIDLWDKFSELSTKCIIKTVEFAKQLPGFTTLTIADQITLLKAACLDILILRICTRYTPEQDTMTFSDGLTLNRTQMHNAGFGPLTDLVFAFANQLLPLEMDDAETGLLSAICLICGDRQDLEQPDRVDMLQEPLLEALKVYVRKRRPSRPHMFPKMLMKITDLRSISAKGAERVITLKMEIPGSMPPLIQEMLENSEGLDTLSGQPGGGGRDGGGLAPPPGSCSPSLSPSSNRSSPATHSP
Sequence of RARa:RXRa (P19793 whole entry, chain 2 of 2): as the sequence (P19793 whole entry, chain 2 of 2) above
Regarding B3, the binding signal was 8.17 PBM z-score against 500 random probes.

Consider B4, for which the binding signal is 4.41 PBM z-score against 500 random probes.

B5: the binding signal was 7.62 PBM z-score against 500 random probes.

Take B6: the binding signal was 4.25 PBM z-score against 500 random probes.

As to B7, the binding signal is 4.15 PBM z-score against 500 random probes.

For B8, the binding signal was 8.73 PBM z-score against 500 random probes.

As to B9, the binding signal was 7.64 PBM z-score against 500 random probes.

For B10, the binding signal is 8.44 PBM z-score against 500 random probes.

On to B11, for which the binding signal is 9.33 PBM z-score against 500 random probes.

Take B12: the binding signal was 7.71 PBM z-score against 500 random probes.

As to B13, the binding signal is 7.18 PBM z-score against 500 random probes.

With B14, the binding signal was 4.35 PBM z-score against 500 random probes.

Consider B15, for which the binding signal is 4.6 PBM z-score against 500 random probes.

Take B16: the binding signal was 4.49 PBM z-score against 500 random probes.

Turning to B17, the binding signal was 4.53 PBM z-score against 500 random probes.

Take B18: the binding signal is 9.38 PBM z-score against 500 random probes.

On to B19, for which the binding signal was 9.27 PBM z-score against 500 random probes.

With B20, the binding signal is 4.31 PBM z-score against 500 random probes.

As to B21, the binding signal was 4.39 PBM z-score against 500 random probes.

Take B22: the binding signal is 7.45 PBM z-score against 500 random probes.

On to B23, for which the binding signal was 4.44 PBM z-score against 500 random probes.

As to B24, the binding signal is 4.18 PBM z-score against 500 random probes.

For the molecule B25, the binding signal is 4.63 PBM z-score against 500 random probes.

As for B26, the binding signal was 4.28 PBM z-score against 500 random probes.

For B27, the binding signal is 4.56 PBM z-score against 500 random probes.

For B28, the binding signal was 4.21 PBM z-score against 500 random probes.

The target of another data set is PPARg:RXRa (Homo sapiens, UniProt P37231;P19793 full;full). In words: no ligand; PBM; 180 nM : 90 nM RXRa; PBS pH 7.4, 2% milk, 0.02% Triton X-100, 1 mM DTT, BSA, 0.4 mg/ml salmon testes DNA. The following applies: tags: His kept;His cleaved; copies: 1;1; label: surface-attached array probe.
Sequence of PPARg:RXRa (P37231 29-505, chain 1 of 2): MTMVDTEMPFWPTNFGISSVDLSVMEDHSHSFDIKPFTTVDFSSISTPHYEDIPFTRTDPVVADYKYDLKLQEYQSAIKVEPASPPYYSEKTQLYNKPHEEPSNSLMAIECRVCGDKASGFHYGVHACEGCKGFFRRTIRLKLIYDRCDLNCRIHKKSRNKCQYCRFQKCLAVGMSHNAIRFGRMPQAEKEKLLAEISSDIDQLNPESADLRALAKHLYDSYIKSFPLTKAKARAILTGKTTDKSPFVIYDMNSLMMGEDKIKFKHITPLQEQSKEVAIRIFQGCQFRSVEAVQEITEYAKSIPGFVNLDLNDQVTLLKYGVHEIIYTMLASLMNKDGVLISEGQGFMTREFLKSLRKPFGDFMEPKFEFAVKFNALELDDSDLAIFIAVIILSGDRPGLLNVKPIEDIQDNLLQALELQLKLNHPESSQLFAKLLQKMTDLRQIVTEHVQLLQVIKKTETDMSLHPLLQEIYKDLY
Sequence of PPARg:RXRa (P19793 whole entry, chain 2 of 2): as the sequence (P19793 whole entry, chain 2 of 2) above
With B1, the binding signal is 0.1 PBM z-score against 500 random probes.

Consider B2, for which the binding signal was 0.45 PBM z-score against 500 random probes.

For the origin of these results see PMC6555819, “Comprehensive study of nuclear receptor DNA binding provides a revised framework for understanding receptor specificity”.
